Literature values as cited in publication PMC4321732.
pKd: −log10 of the molar value.

What was measured:
[1] = biological target: p53K382me2 (Homo sapiens) (UniProt P04637)
[2] = biological target: p53K370me2 (Homo sapiens) (UniProt P04637)
[3] = biological target: Histone H4K20me2 (Homo sapiens) (UniProt P62805)

Chain of 53BP1 TTD tandem Tudor domain (Q12888 1484-1603): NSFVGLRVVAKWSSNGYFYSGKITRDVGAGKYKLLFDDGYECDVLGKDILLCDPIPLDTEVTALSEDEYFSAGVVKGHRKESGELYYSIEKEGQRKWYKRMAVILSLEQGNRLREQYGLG
Chain of p53K370me2 (Homo sapiens) (P04637 whole entry): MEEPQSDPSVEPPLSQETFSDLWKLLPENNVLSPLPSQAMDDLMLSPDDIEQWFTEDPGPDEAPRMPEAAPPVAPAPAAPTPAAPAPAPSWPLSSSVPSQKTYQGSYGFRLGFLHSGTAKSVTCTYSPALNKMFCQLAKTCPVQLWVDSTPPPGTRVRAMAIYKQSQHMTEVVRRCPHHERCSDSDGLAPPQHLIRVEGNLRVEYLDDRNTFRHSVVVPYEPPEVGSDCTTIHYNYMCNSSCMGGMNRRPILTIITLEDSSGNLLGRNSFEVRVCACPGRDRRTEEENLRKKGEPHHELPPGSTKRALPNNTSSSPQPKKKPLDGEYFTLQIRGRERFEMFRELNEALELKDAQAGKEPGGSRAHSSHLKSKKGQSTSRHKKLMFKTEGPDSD
Chain of p53K382me2 (Homo sapiens) (P04637 whole entry): as above

Substance: 53BP1 TTD tandem Tudor domain (from UniProt Q12888)
- pKd [1]: 6.05
- pKd [2]: 4.70
- pKd [3]: 5.89
